Results: IntAct's records for PubMed 19366670

Target: T1, asia_bpt4 asiA (UniProt P32267)
T1 sequence: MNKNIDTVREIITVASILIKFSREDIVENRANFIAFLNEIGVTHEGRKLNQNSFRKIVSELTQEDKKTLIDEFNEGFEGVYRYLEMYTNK

Substance	effect of a mutation on the interaction
DNA-directed RNA polymerase subunit beta (Escherichia coli (strain K12)) (from UniProt P0A8V2) G907K	decreasing interaction strength
DNA-directed RNA polymerase subunit beta (Escherichia coli (strain K12)) (from UniProt P0A8V2) I905A;F906A	decreasing interaction strength
